Results from US12679878B2, “CRF2 receptor agonists and their use in therapy” (SANOFI, priority 2020, dated 2026).
Starred links: 1 amine or outer side, 2 acyl side, 3 side chain; linkers in the order of their positions; H or OH if unused. Non-standard residues stand in square brackets, D forms with d. Groups on a side chain read outwards from the residue. No end group written: not given here. *: point of attachment. C18 diacid = O=C(O)CCCCCCCCCCCCCCCCC(=O)*; γGlu = O=C(O)[C@H](CCC(=O)[*:2])N[*:1]; AEEA = NCCOCCOCC(=O)O; Aib = CC(C)(N)C(=O)O

B1: peptide of SEQ ID NO: 75 (peptide)
peptide: IVLSLDVPIKLK([AEEA-AEEA-γGlu-C18 diacid])QILLKQERQKKQRQQAETN[Aib]QILAQV-NH2
modifications: N-terminus assumed
SMILES: CC[C@H](C)[C@H](N)C(=O)N[C@H](C(=O)N[C@@H](CC(C)C)C(=O)N[C@@H](CO)C(=O)N[C@@H](CC(C)C)C(=O)N[C@@H](CC(=O)O)C(=O)N[C@H](C(=O)N1CCC[C@H]1C(=O)N[C@H](C(=O)N[C@@H](CCCCN)C(=O)N[C@@H](CC(C)C)C(=O)N[C@@H](CCCCNC(=O)COCCOCCNC(=O)COCCOCCNC(=O)CC[C@H](NC(=O)CCCCCCCCCCCCCCCCC(=O)O)C(=O)O)C(=O)N[C@@H](CCC(N)=O)C(=O)N[C@H](C(=O)N[C@@H](CC(C)C)C(=O)N[C@@H](CC(C)C)C(=O)N[C@@H](CCCCN)C(=O)N[C@@H](CCC(N)=O)C(=O)N[C@@H](CCC(=O)O)C(=O)N[C@@H](CCCNC(=N)N)C(=O)N[C@@H](CCC(N)=O)C(=O)N[C@@H](CCCCN)C(=O)N[C@@H](CCCCN)C(=O)N[C@@H](CCC(N)=O)C(=O)N[C@@H](CCCNC(=N)N)C(=O)N[C@@H](CCC(N)=O)C(=O)N[C@@H](CCC(N)=O)C(=O)N[C@@H](C)C(=O)N[C@@H](CCC(=O)O)C(=O)N[C@H](C(=O)N[C@@H](CC(N)=O)C(=O)NC(C)(C)C(=O)N[C@@H](CCC(N)=O)C(=O)N[C@H](C(=O)N[C@@H](CC(C)C)C(=O)N[C@@H](C)C(=O)N[C@@H](CCC(N)=O)C(=O)N[C@H](C(N)=O)C(C)C)[C@@H](C)CC)[C@@H](C)O)[C@@H](C)CC)[C@@H](C)CC)C(C)C)C(C)C
B2: peptide of SEQ ID NO: 79 (peptide)
peptide: IVLSLDVPIKLK([AEEA-AEEA-γGlu-C18 diacid])QILLEQEKQK[Aib]QREQAETNKQILAQV-NH2
modifications: N-terminus assumed
SMILES: CC[C@H](C)[C@H](N)C(=O)N[C@H](C(=O)N[C@@H](CC(C)C)C(=O)N[C@@H](CO)C(=O)N[C@@H](CC(C)C)C(=O)N[C@@H](CC(=O)O)C(=O)N[C@H](C(=O)N1CCC[C@H]1C(=O)N[C@H](C(=O)N[C@@H](CCCCN)C(=O)N[C@@H](CC(C)C)C(=O)N[C@@H](CCCCNC(=O)COCCOCCNC(=O)COCCOCCNC(=O)CC[C@H](NC(=O)CCCCCCCCCCCCCCCCC(=O)O)C(=O)O)C(=O)N[C@@H](CCC(N)=O)C(=O)N[C@H](C(=O)N[C@@H](CC(C)C)C(=O)N[C@@H](CC(C)C)C(=O)N[C@@H](CCC(=O)O)C(=O)N[C@@H](CCC(N)=O)C(=O)N[C@@H](CCC(=O)O)C(=O)N[C@@H](CCCCN)C(=O)N[C@@H](CCC(N)=O)C(=O)N[C@@H](CCCCN)C(=O)NC(C)(C)C(=O)N[C@@H](CCC(N)=O)C(=O)N[C@@H](CCCNC(=N)N)C(=O)N[C@@H](CCC(=O)O)C(=O)N[C@@H](CCC(N)=O)C(=O)N[C@@H](C)C(=O)N[C@@H](CCC(=O)O)C(=O)N[C@H](C(=O)N[C@@H](CC(N)=O)C(=O)N[C@@H](CCCCN)C(=O)N[C@@H](CCC(N)=O)C(=O)N[C@H](C(=O)N[C@@H](CC(C)C)C(=O)N[C@@H](C)C(=O)N[C@@H](CCC(N)=O)C(=O)N[C@H](C(N)=O)C(C)C)[C@@H](C)CC)[C@@H](C)O)[C@@H](C)CC)[C@@H](C)CC)C(C)C)C(C)C
B3: peptide of SEQ ID NO: 77 (peptide)
peptide: IVLSLDVPIKLK([AEEA-AEEA-γGlu-C18 diacid])QILLKQERQKKQRQKAETNKQILAQV-NH2
modifications: N-terminus assumed
SMILES: CC[C@H](C)[C@H](N)C(=O)N[C@H](C(=O)N[C@@H](CC(C)C)C(=O)N[C@@H](CO)C(=O)N[C@@H](CC(C)C)C(=O)N[C@@H](CC(=O)O)C(=O)N[C@H](C(=O)N1CCC[C@H]1C(=O)N[C@H](C(=O)N[C@@H](CCCCN)C(=O)N[C@@H](CC(C)C)C(=O)N[C@@H](CCCCNC(=O)COCCOCCNC(=O)COCCOCCNC(=O)CC[C@H](NC(=O)CCCCCCCCCCCCCCCCC(=O)O)C(=O)O)C(=O)N[C@@H](CCC(N)=O)C(=O)N[C@H](C(=O)N[C@@H](CC(C)C)C(=O)N[C@@H](CC(C)C)C(=O)N[C@@H](CCCCN)C(=O)N[C@@H](CCC(N)=O)C(=O)N[C@@H](CCC(=O)O)C(=O)N[C@@H](CCCNC(=N)N)C(=O)N[C@@H](CCC(N)=O)C(=O)N[C@@H](CCCCN)C(=O)N[C@@H](CCCCN)C(=O)N[C@@H](CCC(N)=O)C(=O)N[C@@H](CCCNC(=N)N)C(=O)N[C@@H](CCC(N)=O)C(=O)N[C@@H](CCCCN)C(=O)N[C@@H](C)C(=O)N[C@@H](CCC(=O)O)C(=O)N[C@H](C(=O)N[C@@H](CC(N)=O)C(=O)N[C@@H](CCCCN)C(=O)N[C@@H](CCC(N)=O)C(=O)N[C@H](C(=O)N[C@@H](CC(C)C)C(=O)N[C@@H](C)C(=O)N[C@@H](CCC(N)=O)C(=O)N[C@H](C(N)=O)C(C)C)[C@@H](C)CC)[C@@H](C)O)[C@@H](C)CC)[C@@H](C)CC)C(C)C)C(C)C
B4: peptide of SEQ ID NO: 70 (peptide)
peptide: IVLSLDVPIKLK([AEEA-AEEA-γGlu-C18 diacid])QILLEQERQKKQREQAETN[Aib]QILAQV-NH2
modifications: N-terminus assumed
SMILES: CC[C@H](C)[C@H](N)C(=O)N[C@H](C(=O)N[C@@H](CC(C)C)C(=O)N[C@@H](CO)C(=O)N[C@@H](CC(C)C)C(=O)N[C@@H](CC(=O)O)C(=O)N[C@H](C(=O)N1CCC[C@H]1C(=O)N[C@H](C(=O)N[C@@H](CCCCN)C(=O)N[C@@H](CC(C)C)C(=O)N[C@@H](CCCCNC(=O)COCCOCCNC(=O)COCCOCCNC(=O)CC[C@H](NC(=O)CCCCCCCCCCCCCCCCC(=O)O)C(=O)O)C(=O)N[C@@H](CCC(N)=O)C(=O)N[C@H](C(=O)N[C@@H](CC(C)C)C(=O)N[C@@H](CC(C)C)C(=O)N[C@@H](CCC(=O)O)C(=O)N[C@@H](CCC(N)=O)C(=O)N[C@@H](CCC(=O)O)C(=O)N[C@@H](CCCNC(=N)N)C(=O)N[C@@H](CCC(N)=O)C(=O)N[C@@H](CCCCN)C(=O)N[C@@H](CCCCN)C(=O)N[C@@H](CCC(N)=O)C(=O)N[C@@H](CCCNC(=N)N)C(=O)N[C@@H](CCC(=O)O)C(=O)N[C@@H](CCC(N)=O)C(=O)N[C@@H](C)C(=O)N[C@@H](CCC(=O)O)C(=O)N[C@H](C(=O)N[C@@H](CC(N)=O)C(=O)NC(C)(C)C(=O)N[C@@H](CCC(N)=O)C(=O)N[C@H](C(=O)N[C@@H](CC(C)C)C(=O)N[C@@H](C)C(=O)N[C@@H](CCC(N)=O)C(=O)N[C@H](C(N)=O)C(C)C)[C@@H](C)CC)[C@@H](C)O)[C@@H](C)CC)[C@@H](C)CC)C(C)C)C(C)C
B5: peptide of SEQ ID NO: 72 (peptide)
peptide: IVLSLDVPIKLK([AEEA-AEEA-γGlu-C18 diacid])QILLEQERQKKQRQQAETN[Aib]QILAQV-NH2
modifications: N-terminus assumed
SMILES: CC[C@H](C)[C@H](N)C(=O)N[C@H](C(=O)N[C@@H](CC(C)C)C(=O)N[C@@H](CO)C(=O)N[C@@H](CC(C)C)C(=O)N[C@@H](CC(=O)O)C(=O)N[C@H](C(=O)N1CCC[C@H]1C(=O)N[C@H](C(=O)N[C@@H](CCCCN)C(=O)N[C@@H](CC(C)C)C(=O)N[C@@H](CCCCNC(=O)COCCOCCNC(=O)COCCOCCNC(=O)CC[C@H](NC(=O)CCCCCCCCCCCCCCCCC(=O)O)C(=O)O)C(=O)N[C@@H](CCC(N)=O)C(=O)N[C@H](C(=O)N[C@@H](CC(C)C)C(=O)N[C@@H](CC(C)C)C(=O)N[C@@H](CCC(=O)O)C(=O)N[C@@H](CCC(N)=O)C(=O)N[C@@H](CCC(=O)O)C(=O)N[C@@H](CCCNC(=N)N)C(=O)N[C@@H](CCC(N)=O)C(=O)N[C@@H](CCCCN)C(=O)N[C@@H](CCCCN)C(=O)N[C@@H](CCC(N)=O)C(=O)N[C@@H](CCCNC(=N)N)C(=O)N[C@@H](CCC(N)=O)C(=O)N[C@@H](CCC(N)=O)C(=O)N[C@@H](C)C(=O)N[C@@H](CCC(=O)O)C(=O)N[C@H](C(=O)N[C@@H](CC(N)=O)C(=O)NC(C)(C)C(=O)N[C@@H](CCC(N)=O)C(=O)N[C@H](C(=O)N[C@@H](CC(C)C)C(=O)N[C@@H](C)C(=O)N[C@@H](CCC(N)=O)C(=O)N[C@H](C(N)=O)C(C)C)[C@@H](C)CC)[C@@H](C)O)[C@@H](C)CC)[C@@H](C)CC)C(C)C)C(C)C

Tests used:
rat CRF2R α receptor = rat CRF2R α receptor (rat, UniProt P47866 20-411); assay: cell-based or functional assay
Sequence of rat CRF2R α receptor (P47866 20-411): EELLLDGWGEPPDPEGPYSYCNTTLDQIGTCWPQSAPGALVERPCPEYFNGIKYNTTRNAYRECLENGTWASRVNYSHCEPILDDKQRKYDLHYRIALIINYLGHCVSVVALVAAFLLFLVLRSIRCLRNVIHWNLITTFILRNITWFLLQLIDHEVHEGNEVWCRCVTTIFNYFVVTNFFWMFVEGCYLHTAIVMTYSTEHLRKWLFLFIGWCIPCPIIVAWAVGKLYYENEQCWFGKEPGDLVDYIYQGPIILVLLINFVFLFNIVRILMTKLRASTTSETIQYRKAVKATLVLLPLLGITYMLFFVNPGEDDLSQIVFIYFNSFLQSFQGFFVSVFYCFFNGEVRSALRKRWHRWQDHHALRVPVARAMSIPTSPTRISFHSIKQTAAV

[1] = biological target: T1, anti-target CRF1R receptor (UniProt P34998 24-415, limits assumed); assay: cell-based or functional assay
T1 sequence (looked up): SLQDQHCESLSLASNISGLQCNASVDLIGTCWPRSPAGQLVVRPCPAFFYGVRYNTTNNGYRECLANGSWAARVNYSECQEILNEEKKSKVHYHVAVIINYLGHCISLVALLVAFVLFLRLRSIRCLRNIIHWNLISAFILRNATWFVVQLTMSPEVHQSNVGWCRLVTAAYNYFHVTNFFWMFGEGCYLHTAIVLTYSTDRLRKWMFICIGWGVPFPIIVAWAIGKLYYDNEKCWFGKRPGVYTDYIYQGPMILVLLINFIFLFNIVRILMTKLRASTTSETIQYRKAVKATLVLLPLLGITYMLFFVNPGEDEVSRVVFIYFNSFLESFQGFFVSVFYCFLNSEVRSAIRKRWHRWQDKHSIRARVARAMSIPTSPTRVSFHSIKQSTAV

Row | EC50 [nM], 0% HSA (cAMP, A7R5 cells) (rat CRF2R α receptor) [nM] | EC50[nM] 0% HSA (cAMP, CRF1R-overexpression CHO cells) [1] [nM] | Emax (%) (cAMP, CRF1R-overexpression CHO cells) [1] | Binder
1 | 1.71 | > 1000 | 2.7 | B1
2 | 3.99 | > 1000 | 8.74 | B2
3 | 3.26 | > 1000 | 1.56 | B3
4 | 8.72 | > 1000 | 3.03 | B4
5 | 4.31 | > 1000 | 2.58 | B5
